Kd data for three molecules are collected here from patent CN112851807A (BLOOD DISEASES HOSPITAL CHINESE ACADEMY OF MEDICAL SCIENCES …, dated 2021).

The Kd is the concentration at which binding is half-saturated. Low readings indicate higher affinity, high ones lower affinity.

This assay concerns the target T1, 人CD123蛋白 (白细胞介素3受体α链) (human, UniProt P26951 19-378).
T1 construct: whole, on cells; also called IL-3Rα; 3T3/CD123+
As to the kind of experiment: flow cytometry, PE-labelled antibody titrated on CD123-transfected 3T3 cells, fitted in GraphPad Prism 5. A general note: A flow cytometer gives signals particle by particle.

T1 sequence (P26951 19-378): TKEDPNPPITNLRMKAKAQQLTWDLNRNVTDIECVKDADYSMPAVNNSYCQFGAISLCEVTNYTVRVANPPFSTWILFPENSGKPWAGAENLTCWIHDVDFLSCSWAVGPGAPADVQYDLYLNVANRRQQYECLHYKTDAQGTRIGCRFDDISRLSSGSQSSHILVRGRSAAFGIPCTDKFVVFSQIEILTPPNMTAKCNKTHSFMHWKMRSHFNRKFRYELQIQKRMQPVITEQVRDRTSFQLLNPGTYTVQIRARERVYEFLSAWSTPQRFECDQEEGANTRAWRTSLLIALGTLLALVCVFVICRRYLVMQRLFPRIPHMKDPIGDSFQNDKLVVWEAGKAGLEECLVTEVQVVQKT

B1: 抗CD123单克隆抗体8D7 (antibody, IgG1, V domains shown)
VH: EVQLQESGPGLVKPSQSLSLTCTVTGYSITNDYTWNWIRQFPGNKLEWMGYISFSGITSHNPSLNSRISITRDTSKNQFFLQLNSVTTEDTATYYCTRGVDFWGQGTSVTVSA
VL: DIVLTQSPATLSVTPGDSVSLSCWASQSISNSLHWYQQKSHESPRLLIKFASQSISGIPSRFSGSGSGTDFTLSIDSVETEDFGMYFCQQGHTWPHTFGAGTKLELKR
notes: Purified from ascites; also called CGMCC 18849
The molecule B1 showed a Kd of 2.01 nM.

B2: 抗CD123单克隆抗体12H7 (antibody, IgG1, V domains shown)
VH: QVKLQESGPGLVKPSQSLSLTCTVTGYSITSDFAWNWVRQFPGDKLEWMGYISYSGGTNYHPSLKDRISITRDTSKNQVFLQLNSVTTEDTATYYCARGGMITPYFAYWGQGTLVTVSA
VL: DVVVTQTPLSLPVSFGDQVSISCRSSQSLANSYGNTFLSWYLHKPGQSPQLLIYGISNRFSGVPDRFSGSGSGTDFTLKISTIKPEDLGIYYCLQGTHQPWTFGGGTKLEIKR
notes: Purified from ascites; also called CGMCC 18847
For the molecule B2, binding was put at a Kd of 2.09 nM.

B3: 抗CD123单克隆抗体6E11 (antibody, IgG1, V domains shown)
VH: QVQLQESGPGLVKPSQSLSLTCTVTGYSITNDFAWNWIRQFPGNKLEWMGYISFSGSTSYNPSLKGRISITRDTSKNQFFLQLNSVTTEDTATYSCARGGMITPYFSYWGQGTLVTVSA
VL: DVVVTQTPLSLPVSFGDSVSISCRSSQSLANSYGNTFLSWYLHRPGQSPQLLIYGISNRFSGVPDRFSGSGSGTDFTLKISSIKPEDLGVYYCLQGTHQPWTFGGGTKLEIKR
notes: Purified from ascites; also called CGMCC 18848
With B3, the Kd was determined as 2.1 nM.
